# Values quoted from earlier work, collected in patent US20060188964A1, “Processing for producing and crystallizing G-protein coupled receptors” (priority 2004, published 2006).
# System: insulin action in the liver
# Conditions: mice; insulin clamp; recombinant protein from HEK-293T cells
molecule,measurement,value
"resistin: mouse resistin, a highly disulfide-linked hormone naturally secreted from adipocytes; recombinant, hexameric (protein, UniProt Q99P87 21-114, looked up) Resistin: SSMPLCPIDEAIDKKIKQDFNSLFPNAIKNIGLNCWTVSSRGKLASCPEGTAVLSCSCGSACGSWDIREEKVCHCQCARIDWTAARCCKLQVAS",effect on insulin action,potent antagonist of insulin action in the liver
